Reference: paper PMC8053128, “Structures of Neisseria gonorrhoeae MtrR-operator complexes reveal molecular mechanisms of DNA recognition and antibiotic resistance-conferring clinical mutations”

B1: emrAB 22mer (dsDNA)
DNA 1: AGTCGGCTATATCATTGCTGTC
DNA 2: GACAGCAATGATATAGCCGACT
B2: ApY 27mer (dsDNA)
DNA 1: TACAATCGTGGTTGATTGTAAACGGCC
DNA 2: GGCCGTTTACAATCAACCACGATTGTA
B3: rpoH 27mer (dsDNA)
DNA 1: TACATACGTGGTTGTATGTAAACGGCC
DNA 2: GGCCGTTTACATACAACCACGTATGTA
B4: GpY 27mer (dsDNA)
DNA 1: TACATAGCTGGTGTTATGTAAACGGCC
DNA 2: GGCCGTTTACATAACACCAGCTATGTA
B5: rpoH 21mer (crystal) (dsDNA)
DNA 1: TACATACGTGGTTGTATGTAA
DNA 2: TTACATACAACCACGTATGTA
B6: mtrCDE 21mer (dsDNA)
DNA 1: TATCCGTGCAATCGTGTATGT
DNA 2: ACATACACGATTGCACGGATA
B7: mtrCDE 27mer (dsDNA)
DNA 1: TTTTTATCCGTGCAATCGTGTATGTAT
DNA 2: ATACATACACGATTGCACGGATAAAAA

Key:
[1] = biological target: T1, MtrR WT (Neisseria gonorrhoeae, UniProt P39897 1-210); experiment: fluorescence polarization; nonspecific binding only; FP: 20 mM Tris-HCl pH 7.5, 100 mM NaCl, 2.5% glycerol, 1 mM TCEP, 1 ug BSA, 1 ug poly(dI-dC), 1 nM 5'-fluorescein DNA; temperature not stated; MtrR concentration as dimer; settings: protein: recombinant; tags: N-terminal His6 removed by TEV (pMCSG7); chain copies: 2; label: 5'-fluorescein
[2] = biological target: MtrR A39T (Neisseria gonorrhoeae, UniProt P39897 1-210, A39T); experiment: fluorescence polarization; FP: 20 mM Tris-HCl pH 7.5, 100 mM NaCl, 2.5% glycerol, 1 mM TCEP, 1 ug BSA, 1 ug poly(dI-dC), 1 nM 5'-fluorescein DNA; temperature not stated; MtrR concentration as dimer; settings: protein: recombinant; tags: N-terminal His6 removed by TEV (pMCSG7); chain copies: 2; label: 5'-fluorescein
[3] = biological target: MtrR G45D (Neisseria gonorrhoeae, UniProt P39897 1-210, G45D); experiment: as above; settings: protein: recombinant; tags: N-terminal His6 removed by TEV (pMCSG7); chain copies: 2; label: 5'-fluorescein
[4] = biological target: MtrR R44A (Neisseria gonorrhoeae, UniProt P39897 1-210, R44A); experiment: as above; settings: protein: recombinant; tags: N-terminal His6 removed by TEV (pMCSG7); chain copies: 2; label: 5'-fluorescein
[5] = biological target: MtrR T43A (Neisseria gonorrhoeae, UniProt P39897 1-210, T43A); experiment: as above; settings: protein: recombinant; tags: N-terminal His6 removed by TEV (pMCSG7); chain copies: 2; label: 5'-fluorescein
[6] = biological target: MtrR G45A (Neisseria gonorrhoeae, UniProt P39897 1-210, G45A); experiment: as above; settings: protein: recombinant; tags: N-terminal His6 removed by TEV (pMCSG7); chain copies: 2; label: 5'-fluorescein
[7] = biological target: T1, MtrR WT; experiment: as above; settings: protein: recombinant; tags: N-terminal His6 removed by TEV (pMCSG7); chain copies: 2; label: 5'-fluorescein
[8] = biological target: MtrR T11A (Neisseria gonorrhoeae, UniProt P39897 1-210, T11A); experiment: as above; settings: protein: recombinant; tags: N-terminal His6 removed by TEV (pMCSG7); chain copies: 2; label: 5'-fluorescein
[9] = biological target: MtrR H105Y (Neisseria gonorrhoeae, UniProt P39897 1-210, H105Y); experiment: as above; settings: protein: recombinant; tags: N-terminal His6 removed by TEV (pMCSG7); chain copies: 2; label: 5'-fluorescein
[10] = biological target: MtrR T43S (Neisseria gonorrhoeae, UniProt P39897 1-210, T43S); experiment: as above; settings: protein: recombinant; tags: N-terminal His6 removed by TEV (pMCSG7); chain copies: 2; label: 5'-fluorescein
[11] = biological target: MtrR W49F (Neisseria gonorrhoeae, UniProt P39897 1-210, W49F); experiment: as above; settings: protein: recombinant; tags: N-terminal His6 removed by TEV (pMCSG7); chain copies: 2; label: 5'-fluorescein
[12] = biological target: MtrR H50A (Neisseria gonorrhoeae, UniProt P39897 1-210, H50A); experiment: as above; settings: protein: recombinant; tags: N-terminal His6 removed by TEV (pMCSG7); chain copies: 2; label: 5'-fluorescein
[13] = biological target: Semet-MtrR WT (Neisseria gonorrhoeae, UniProt P39897 1-210); experiment: X-ray crystallography; 2.6 A; 200 mM calcium acetate; FP: 20 mM Tris-HCl pH 7.5, 100 mM NaCl, 2.5% glycerol, 1 mM TCEP, 1 ug BSA, 1 ug poly(dI-dC), 1 nM 5'-fluorescein DNA; temperature not stated; MtrR concentration as dimer; settings: protein: recombinant; tags: N-terminal His6 removed by TEV (pMCSG7); chain copies: 2
[14] = biological target: MtrR D79N (Neisseria gonorrhoeae, UniProt P39897 1-210, D79N); experiment: fluorescence polarization; FP: 20 mM Tris-HCl pH 7.5, 100 mM NaCl, 2.5% glycerol, 1 mM TCEP, 1 ug BSA, 1 ug poly(dI-dC), 1 nM 5'-fluorescein DNA; temperature not stated; MtrR concentration as dimer; settings: protein: recombinant; tags: N-terminal His6 removed by TEV (pMCSG7); chain copies: 2; label: 5'-fluorescein

| Binder | binding result [3] | binding result [4] | binding result [5] | Kd [7] [nM] | Kd [9] [nM] | further results |
| --- | --- | --- | --- | --- | --- | --- |
| B1 | no binding | no binding | no binding |  |  | binding result [1]: no binding; binding result [2]: no binding; binding result [6]: no binding |
| B2 |  |  |  | 293 ± 24 |  |  |
| B3 | no binding | no binding | no binding | 8 ± 1 | 340 ± 57 | Kd [2]: 31 ± 3 nM; Kd [8]: 441 ± 37 nM; Kd [10]: 860 ± 180 nM; Kd [11]: 53 ± 3 nM; Kd [12]: 376 ± 35 nM |
| B4 | no binding | no binding | no binding |  | 860 ± 80 | binding result [1]: no binding; binding result [2]: no binding; binding result [6]: no binding |
| B5 |  |  |  |  |  | binding result [13]: binds |
| B6 | no binding | no binding | no binding | 50 ± 4 | 640 ± 130 | Kd [2]: 170 ± 11 nM; Kd [8]: 1080 ± 93 nM; Kd [11]: 380 ± 44 nM; binding result [14]: no binding; Kd [12]: 990 ± 100 nM |
| B7 |  |  |  | 43 ± 4 |  |  |
